The target of assay [1] is T1, Potato virus Y capsid protein (PVY CP) fused with the Gal4 binding domain (Potato virus Y (N strain), UniProt P04386 1-147; P18247 2797-3063).
T1 construct: also called pGBT9-PVY CP; PVY envelope protein
As to the kind of experiment: yeast two-hybrid, lacZ reporter.

Assay [2] has as its target Tobacco vein mottling virus capsid protein (TVMV CP), Gal4 binding domain fusion (Tobacco vein mottling virus, UniProt P04386 1-147; P09814 2759-3023). As to the kind of experiment: yeast two-hybrid, HIS3 and lacZ reporters.
Assay [3] deals with T1, Potato virus Y capsid protein (PVY CP) …. The experiment in a line: yeast two-hybrid, lacZ activity.
Assay [4] addresses T2, Gal4 binding domain alone (pGBT1) (UniProt P04386 1-147).
T2 construct: Control
As to the kind of experiment: yeast two-hybrid, lacZ activity.

Assay [5] deals with T3, SNF1 fused with the Gal4 binding domain (pBD-SNF1) (UniProt P04386 1-147; P06782 1-633).
T3 construct: Control plasmid, bought
As to the kind of experiment: yeast two-hybrid, lacZ activity.

Positions count from the first letter of the chain named.

B1: NtCPIP1 Δ115N, Gal4 activation domain fusion (other)
chain: TGGTVRIRKPAPVENKLPCSLEELYKGSKRKMKISRIVLDVTGKPTTIEEVLAIHIKPGWKKGTKITFPEKGNHEPGAAPGDLIFVIDEKPHDVFKRDGNDLVINQKISLVDALSGKIINLATLDGRELTIPITDVVKPGHEQIIADEGMPISKEPGKKGNLRIKFEVKFPSRLSSDQKLDIRRVLGRTVD
B1: the binding result in assay [1] is on record as “no binding”.

B2: NtCPIP2a (DnaJ-like protein from Nicotiana tabacum), Gal4 activation domain fusion (other)
chain: MGLDYYNVLKVSRNASEEDLKRSYKRLAMKWHPDKNSQNKKEAEAKFKQISEAYDVLSDPQKRQIYDVYGDDALKSGQFASASPTSAGSNARGFRFNTRDAEAIFAEFFGGSGSNSGAGVGRKAAPVENKLPCSLEELYKGSRRKMKISRILLDDSGKPTTVEEVLAIHIKPGWKKGTKITFPEKGNYEPGATPGDLIFVIDEKPHAVFKRDGNDLEINQKISLLDALTGKTISLITLDGRELTIPITDIVKPGHEHIIPNEGMPISKERGKKGNLKIKFDIKFPSRLSADQKSDIRRVLCRSAD
For the molecule B2, in assay [2], the binding result was “no binding”.

B3: NtCPIP2b (DnaJ-like protein from Nicotiana tabacum), Gal4 activation domain fusion (other)
chain: B2 chain with N7D, A91G, G113D, G117A, E217V, I250V, S303N, A304S
B3: in assay [2], the binding result is recorded as “no binding”.

B4: NtCPIP2a Δ119N, Gal4 activation domain fusion (other)
chain: VGRKAAPVENKLPCSLEELYKGSRRKMKISRILLDDSGKPTTVEEVLAIHIKPGWKKGTKITFPEKGNYEPGATPGDLIFVIDEKPHAVFKRDGNDLEINQKISLLDALTGKTISLITLDGRELTIPITDIVKPGHEHIIPNEGMPISKERGKKGNLKIKFDIKFPSRLSADQKSDIRRVLCRSAD
As for B4, the binding result in assay [1] is on record as “no binding”.

B5: SNF4 fused with the Gal4 activation domain (pAD-SNF4) (other)
chain: MKPTQDSQEKVSIEQQLAVESIRKFLNSKTSYDVLPVSYRLIVLDTSLLVKKSLNVLLQNSIVSAPLWDSKTSRFAGLLTTTDFINVIQYYFSNPDKFELVDKLQLDGLKDIERALGVDQLDTASIHPSRPLFEACLKMLESRSGRIPLIDQDEETHREIVVSVLTQYRILKFVALNCRETHFLKIPIGDLNIITQDNMKSCQMTTPVIDVIQMLTQGRVSSVPIIDENGYLINVYEAYDVLGLIKGGIYNDLSLSVGEALMRRSDDFEGVYTCTKNDKLSTIMDNIRKARVHRFFVVDDVGRLVGVLTLSDILKYILLGSN
Regarding B5, the binding result in assay [3] was “no binding”.

B6: NtCPIP1 (DnaJ-like protein from Nicotiana tabacum) fused with the Gal4 activation domain (other)
chain: MGVDYYKILKVSRNASEEDLKKSYKRLAMKWHPDKNSEKEAEAKFKQISEAYDVLSDPQKRQIYDIYGDEALKSGQFDPSSPMNGNGRGFKFDSRDAEDIFAEFFGGSDGYSRSPTGGTVRIRKPAPVENKLPCSLEELYKGSKRKMKISRIVLDVTGKPTTIEEVLAIHIKPGWKKGTKITFPEKGNHEPGAAPGDLIFVIDEKPHDVFKRDGNDLVINQKISLVDALSGKIINLATLDGRELTIPITDVVKPGHEQIIADEGMPISKEPGKKGNLRIKFEVKFPSRLSSDQKLDIRRVLGRTVD
notes: also called pAD-CPIP1
Consider B6, for which the binding result in assay [4], in assay [5] and in assay [2] was “no binding” throughout.

B7: NtCPIP2a Δ94N, Gal4 activation domain fusion (other)
chain: RFNTRDAEAIFAEFFGGSGSNSGAGVGRKAAPVENKLPCSLEELYKGSRRKMKISRILLDDSGKPTTVEEVLAIHIKPGWKKGTKITFPEKGNYEPGATPGDLIFVIDEKPHAVFKRDGNDLEINQKISLLDALTGKTISLITLDGRELTIPITDIVKPGHEHIIPNEGMPISKERGKKGNLKIKFDIKFPSRLSADQKSDIRRVLCRSAD
On to B7, for which the binding result in assay [1] is recorded as “no binding”.

These data come from US20050251879A1 (published 2005).
